What was measured:
Type I collagen [1] = target: T1, Type I collagen (Rattus norvegicus, UniProt P02454;P02466 P02454:152-1207,P02466:86-1125); assay: maximum binding at 17.83% mass fraction ssDNA; SYBR Safe depletion assay, deionized water, RT; conditions: tags: rat tail tendon, Corning; chain copies: 2,1
Type I collagen [2] = target: T1, Type I collagen; assay: percent DNA bound rises with collagen; SYBR Safe depletion after centrifugation; fibers at 10-30% vol collagen; conditions: tags: rat tail tendon, Corning; chain copies: 2,1; hairpins predicted
Experimental: In 96 well plate, mixtures of scrambled aptamer (1 μM) were mixed with rat tail type I collagen (0.3 mg/mL). Mixtures were at 25% increments from 0% to 100% volume fraction collagen with 1 replicate. Solutions were incubated at room temperature for 2 hours and then SYBR Safe DNA stain was added in a 2:1 ratio to the aptamer-collagen solutions and incubated for 30 minutes in the dark at room temperature. The solutions were centrifuged at 2000 g for 5 minutes and the supernatant was added to a 96 well plate giving 2 repeats per solution. Fluorescent intensity was measured by exciting at 488 nm and reading emission at 520 nm.

Type I collagen [3] = target: T1, Type I collagen; assay: binding capacity identical to random ssDNA; fibers form above about 5 pmol ssDNA/ug collagen; conditions: tags: rat tail tendon, Corning; chain copies: 2,1
Experimental: (§1) Complexes spontaneously formed upon mixing and were incubated at room temperature overnight followed by storage in solution at 4° C. until needed.
(§2) The amount of ssDNA in the DNA aptamer-collagen complex self-assembled fibers for different volume fractions of type I collagen and ssDNA oligomer was assessed fluorometrically by measuring the intensity of a fluorescent DNA stain. Solutions of different volume fractions were diluted at a 1:2 volume ratio of fiber solution to SYBR Safe DNA stain (Invitrogen). The stain concentrate was diluted first at a 1:10,000 volume ratio in deionized water. Then the mixtures were incubated protected from light for 30 minutes at room-temperature. After incubation, the mixtures were centrifuged at 2000 g for five minutes. Supernatant was plated in duplicate into black walled 96 well microplates and fluorescence intensity was measured by exciting at 488 nm and detecting at 520 nm using a UV-Vis Synergy H1 plate reader (BioTek). ssDNA in the supernatant was quantified using a standard curve fit with a 4-parameter logistic regression to correlate fluorescent intensity to ssDNA concentration. Individual standard curves were prepared for each ssDNA to account for any differences in DNA stain interaction with the two ssDNA sequences due to their secondary structure.

Type I collagen [4] = target: T1, Type I collagen; assay: fiber formation by microscopy, deionized water; conditions: tags: rat tail tendon, Corning; chain copies: 2,1
Type I collagen [5] = target: T1, Type I collagen; assay: fiber formation, same as random sequence; none above 50% vol collagen; conditions: tags: rat tail tendon, Corning; chain copies: 2,1
From the text: (§3) A VEGF-R2 targeting aptamer sequence was used in both a monovalent (single sequence) and divalent form (two single sequences tethered by a (PEG)6 linker). For all studies, we used a random sequence ssDNA of the same length and GC content as a control to determine the effect of the targeting and functionality of the DNA aptamer as compared to the effect of purely ssDNA, respectively.32 The VEGF-R2 targeting aptamer monovalent sequence is: ‘5-GATGTGAGTGTGTGACGAGCTACGACGTCTGGTGTAATTTATAAAGACACTGTGTATATCAACAACAGAACAAGGAAAGG-3’ (SEQ ID NO:14) .The random ssDNA oligomer monovalent sequence is: ‘5-TAATGAGAAGTATGTGTAGAGTCAATGAGATACGCAATTGGGAAGACAAGAGTATTGACTCGGACTGAGTACAATCGTCC-3’ (SEQ ID NO:15). […]
(§4) Fiber morphology for the different volume fractions of type I collagen and DNA aptamer was qualitatively assessed by phase and fluorescence microscopy using immobilized fibers. For fluorescence microscopy, immobilized fibers were stained with SYBR Safe DNA stain (Invitrogen) diluted at a 1:10,000 volume ratio in deionized water. […] To quantify surface coverage, full well images were taken with a Keyence BZ-X700 fluorescence microscope.

Type I collagen [6] = target: T1, Type I collagen; assay: binding capacity identical to HAP aptamer; fibers form above about 5 pmol ssDNA/ug collagen; conditions: tags: rat tail tendon, Corning; chain copies: 2,1
Experimental: as §1, §2

Type I collagen [7] = target: T1, Type I collagen; assay: fiber formation, same as VEGF-R2 aptamer; conditions: tags: rat tail tendon, Corning; chain copies: 2,1
From the text: as §3, §4

Type I collagen [8] = target: T1, Type I collagen; assay: maximum binding at 29.32% mass fraction ssDNA; SYBR Safe depletion assay, deionized water, RT; conditions: tags: rat tail tendon, Corning; chain copies: 2,1
Type I collagen [9] = target: T1, Type I collagen; assay: maximum binding at 12.27% mass fraction ssDNA; SYBR Safe depletion assay, deionized water, RT; conditions: tags: rat tail tendon, Corning; chain copies: 2,1
Type I collagen [10] = target: T1, Type I collagen; assay: maximum binding at 23.16% mass fraction ssDNA; SYBR Safe depletion assay, deionized water, RT; conditions: tags: rat tail tendon, Corning; chain copies: 2,1

T1 sequence (P02454 152-1207, chain 1 of 2): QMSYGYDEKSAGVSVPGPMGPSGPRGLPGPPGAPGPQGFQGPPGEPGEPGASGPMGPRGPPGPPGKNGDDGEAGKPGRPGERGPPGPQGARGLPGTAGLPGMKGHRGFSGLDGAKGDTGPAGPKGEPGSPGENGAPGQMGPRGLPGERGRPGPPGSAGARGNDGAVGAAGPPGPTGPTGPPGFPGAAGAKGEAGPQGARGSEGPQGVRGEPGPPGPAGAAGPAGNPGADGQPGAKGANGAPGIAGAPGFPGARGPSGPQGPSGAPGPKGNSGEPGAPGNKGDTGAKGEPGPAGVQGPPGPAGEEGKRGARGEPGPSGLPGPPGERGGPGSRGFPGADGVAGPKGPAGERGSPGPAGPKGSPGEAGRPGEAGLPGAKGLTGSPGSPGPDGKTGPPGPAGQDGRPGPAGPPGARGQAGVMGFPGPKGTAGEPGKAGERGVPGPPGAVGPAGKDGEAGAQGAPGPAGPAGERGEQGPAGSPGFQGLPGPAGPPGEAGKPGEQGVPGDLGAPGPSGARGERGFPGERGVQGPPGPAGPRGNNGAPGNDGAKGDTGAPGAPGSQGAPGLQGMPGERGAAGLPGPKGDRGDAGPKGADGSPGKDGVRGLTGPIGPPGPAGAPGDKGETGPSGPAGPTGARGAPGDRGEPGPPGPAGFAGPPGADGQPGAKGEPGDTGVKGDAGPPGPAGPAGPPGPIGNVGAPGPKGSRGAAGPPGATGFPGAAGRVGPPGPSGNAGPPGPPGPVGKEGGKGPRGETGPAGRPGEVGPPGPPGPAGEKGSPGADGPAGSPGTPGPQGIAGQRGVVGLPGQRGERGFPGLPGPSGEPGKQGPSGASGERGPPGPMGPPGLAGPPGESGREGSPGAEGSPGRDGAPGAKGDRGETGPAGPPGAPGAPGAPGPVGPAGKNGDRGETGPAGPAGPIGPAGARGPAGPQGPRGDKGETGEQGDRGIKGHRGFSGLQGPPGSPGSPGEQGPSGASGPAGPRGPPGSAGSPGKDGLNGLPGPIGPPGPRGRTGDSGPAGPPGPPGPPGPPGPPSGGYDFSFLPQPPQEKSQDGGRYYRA
T1 sequence (P02466 86-1125, chain 2 of 2): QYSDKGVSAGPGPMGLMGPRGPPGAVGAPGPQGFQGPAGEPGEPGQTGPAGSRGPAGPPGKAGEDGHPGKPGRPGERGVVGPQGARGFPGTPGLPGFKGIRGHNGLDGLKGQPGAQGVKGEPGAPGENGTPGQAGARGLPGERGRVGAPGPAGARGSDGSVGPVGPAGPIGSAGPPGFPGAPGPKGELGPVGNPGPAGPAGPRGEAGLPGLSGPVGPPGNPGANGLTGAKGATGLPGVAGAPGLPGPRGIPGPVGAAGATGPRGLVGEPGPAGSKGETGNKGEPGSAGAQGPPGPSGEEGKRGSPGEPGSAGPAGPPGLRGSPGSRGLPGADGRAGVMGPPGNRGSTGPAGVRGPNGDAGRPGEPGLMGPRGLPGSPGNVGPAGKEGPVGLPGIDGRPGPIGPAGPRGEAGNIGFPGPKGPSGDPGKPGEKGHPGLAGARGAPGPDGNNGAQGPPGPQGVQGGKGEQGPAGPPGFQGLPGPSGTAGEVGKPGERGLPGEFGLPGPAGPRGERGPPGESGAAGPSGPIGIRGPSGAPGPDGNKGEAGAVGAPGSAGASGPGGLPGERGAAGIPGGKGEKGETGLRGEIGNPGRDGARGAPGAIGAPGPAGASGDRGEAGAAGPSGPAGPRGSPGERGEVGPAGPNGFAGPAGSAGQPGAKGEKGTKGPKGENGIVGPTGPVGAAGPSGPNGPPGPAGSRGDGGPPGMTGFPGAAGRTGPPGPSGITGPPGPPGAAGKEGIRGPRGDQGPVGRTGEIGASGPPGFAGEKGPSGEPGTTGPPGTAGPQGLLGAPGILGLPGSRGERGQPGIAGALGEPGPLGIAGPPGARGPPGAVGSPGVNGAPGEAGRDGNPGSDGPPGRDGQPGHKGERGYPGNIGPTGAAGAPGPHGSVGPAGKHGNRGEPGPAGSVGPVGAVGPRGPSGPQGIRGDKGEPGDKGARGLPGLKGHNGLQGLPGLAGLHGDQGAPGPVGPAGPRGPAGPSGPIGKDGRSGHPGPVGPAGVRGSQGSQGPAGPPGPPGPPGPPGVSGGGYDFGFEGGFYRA

B1: random 90 nt ssDNA (ssDNA)
DNA: AATTTAGGAGCTGAAGGTCAGGGCACCAGCAGCCTTTGGAAGCCTACAGGACAACAGTCAGCCTGGCTAGAAAAAAAAACAATGTCACAG
**Q.** Does B1 bind (Type I collagen [1])?
**A.** binds

B2: scrambled 80 nt aptamer (ssDNA)
DNA: TAAAACGCGCTTAAGCTGGTGTTACTCGAGCGGTCTTCTATTGAAATAATTTCTGAAGGCACACGACATATGATCTTCAG
modifications: 5' amino C6 (5AmMC6)
**Q.** Does B2 bind (Type I collagen [2])?
**A.** binds

**Q.** Does CAGGTGGGCGCGCTGTCGTGGGTGCTCGGGTGCGGTTGGG (ssDNA) [HAP aptamer (Aptamer G)] bind (Type I collagen [3])?
**A.** binds

**Q.** Does CAGGTGGGGGCGCTGTCGTGGGGGCTCGGGGGCGGTGGGG (ssDNA) [Aptamer G+] bind (Type I collagen [4])?
**A.** binds

**Q.** Does CAGGTGCGCGCGCTGTCGTGCGTGCTCGCGTGCGGTTGCG (ssDNA) [Aptamer G-] bind (Type I collagen [4])?
**A.** binds

B3: VEGF-R2 aptamer monovalent (ssDNA)
DNA: GATGTGAGTGTGTGACGAGCTACGACGTCTGGTGTAATTTATAAAGACACTGTGTATATCAACAACAGAACAAGGAAAGG
**Q.** Does B3 bind (Type I collagen [5])?
**A.** binds

**Q.** Does TAAAACGCGCTTAAGCTGGTGTTACTCGAGCGGTCTTCTA (ssDNA) [random ssDNA 40 nt (Sequence R)] bind (Type I collagen [6])?
**A.** binds

B4: random ssDNA oligomer monovalent 80 nt (ssDNA)
DNA: TAATGAGAAGTATGTGTAGAGTCAATGAGATACGCAATTGGGAAGACAAGAGTATTGACTCGGACTGAGTACAATCGTCC
**Q.** Does B4 bind (Type I collagen [7])?
**A.** binds

**Q.** Does TCCCGCGAAATTAATACGACAGCACCACTTTTGGAGGGAGATTTC (ssDNA) [random 45 nt ssDNA] bind (Type I collagen [8])?
**A.** binds

**Q.** Does GGAGCTGTTGGCGTA (ssDNA) [random 15 nt ssDNA] bind (Type I collagen [9])?
**A.** binds

**Q.** Does CAGAGAATCTCCATTTTAGCACTTACCTGTGAC (ssDNA) [random 33 nt ssDNA] bind (Type I collagen [10])?
**A.** binds
